Experimental data published in the supplement of paper PMC7877785.
± gives the uncertainty stated by the source.

Test: self-splicing fitness, log relative to wild type (ln ratio); higher = more splicing; Tetrahymena group I intron in knt gene, E. coli kanamycin selection, DiMSum; sequences stand for … in CUCUCU…GGAGGGAAAAGUUAUCAGGCAUGCACCUGGUAGCUAGUCUUUAAACCAAUAGAUUGCAUCGGUUUAAAAGGCAAGACCGUCAAAUUGCGGGAAAGGGGUCAACAGCCGUUCAGUACCAAGUCUCAGGGGAAACUUUGAGAUGGCCUUGCAAAGGGUAUGGUAAUAAGCUGACGGACAUGGUCCUAACCACGCAGCCAAGUCCUAAGUCAACAGAUCUUCUGUUGAUAUGGAUGCAGUUCACAGACUAAAUGUCGGUCGGGGAAGAUGUAUUCUUCUCAUAAGAUAUAGUCGGACCUCUCCUUAAUGGGAGCUAGCGGAUGAAGUGAUGCAACACUGGAGCCGCUGGGAACUAAUUUGUAUGCGAAAGUAUAUUGAUUAGUUUUGGAGUACUCGUGGUCG
In short: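 The eight P1ex-region nucleotides of an intron in the knt kanamycin-resistance gene on pET-22b(+) were all randomised and the library put into E. coli BL21(DE3). Six replicate transformations were grown overnight at 37°C or 30°C on LB agar with or without 25 μg/mL kanamycin, together with 100 μg/mL carbenicillin, 50 μM IPTG and 0.2% rhamnose. Colonies were pooled and amplicon-sequenced on an Illumina HiSeq 2500. Fitness from DiMSum is the error-weighted combination of wild-type-normalised replicate fold changes, kanamycin over none.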

| Sequence | self-splicing fitness (ln) (30 °C) | self-splicing fitness (ln) (37 °C) |
| --- | --- | --- |
| AAGCAGCAAUAUUACGUUUG | -3.04 ± 0.13 | -1.73 ± 0.14 |
| AAGCAGCAAUAUUACGUUUU | -3.3 ± 0.14 | -2.52 ± 0.14 |
| AAGGAGCAAUAUUACGAAGG | -3.3 ± 0.28 | -2.99 ± 0.41 |
| AAGGAGCAAUAUUACGAAGU | -3.53 ± 0.43 | -2.57 ± 0.36 |
| AAGGAGCAAUAUUACGACAA | -2.38 ± 0.2 | -2.16 ± 0.33 |
| AAGGAGCAAUAUUACGACAU | -2.282 ± 0.02 | -1.6 ± 0.037 |
| AAGGAGCAAUAUUACGACCU | -0.0623 ± 0.16 | -0.475 ± 0.2 |
| AAGGAGCAAUAUUACGAGAA | -3.76 ± 0.42 | -2.22 ± 0.24 |
| AAGGAGCAAUAUUACGAGAC | -2.03 ± 0.44 | – |
| AAGGAGCAAUAUUACGAGUG | – | -2.2 ± 0.4 |
| AAGGAGCAAUAUUACGAGUU | -3.53 ± 0.17 | -1.65 ± 0.12 |
| AAGGAGCAAUAUUACGAUAC | -3.49 ± 0.39 | -3.25 ± 0.37 |
| AAGGAGCAAUAUUACGAUAG | -4.31 ± 0.46 | -2.87 ± 0.43 |
| AAGGAGCAAUAUUACGCAAA | -3.1 ± 0.3 | -2.7 ± 0.32 |
| AAGGAGCAAUAUUACGCACA | – | -1.89 ± 0.47 |
| AAGGAGCAAUAUUACGCCGU | -1.14 ± 0.27 | -1.16 ± 0.37 |
| AAGGAGCAAUAUUACGCGAA | -1.94 ± 0.22 | -1.39 ± 0.23 |
| AAGGAGCAAUAUUACGCGCC | -2.85 ± 0.24 | -1.19 ± 0.17 |
| AAGGAGCAAUAUUACGCGUC | -2.96 ± 0.37 | – |
| AAGGAGCAAUAUUACGCUAA | -2.97 ± 0.23 | -1.51 ± 0.2 |
| AAGGAGCAAUAUUACGGCAA | -2.54 ± 0.39 | – |

| Sequence | self-splicing fitness (ln) (30 °C) | self-splicing fitness (ln) (37 °C) |
| --- | --- | --- |
| AAGGAGCAAUAUUACGGCAU | -2.77 ± 0.18 | -2.05 ± 0.23 |
| AAGGAGCAAUAUUACGGCCU | -1.62 ± 0.12 | -0.486 ± 0.12 |
| AAGGAGCAAUAUUACGGCGC | -2 ± 0.27 | -2.34 ± 0.48 |
| AAGGAGCAAUAUUACGGGAA | -2.09 ± 0.2 | -3.29 ± 0.24 |
| AAGGAGCAAUAUUACGGUGG | -3.21 ± 0.15 | -2.45 ± 0.27 |
| AAGGAGCAAUAUUACGUACC | -3.01 ± 0.33 | -3.19 ± 0.41 |
| AAGGAGCAAUAUUACGUAGA | -3.27 ± 0.26 | -1.46 ± 0.18 |
| AAGGAGCAAUAUUACGUAUU | -2.95 ± 0.12 | -2.34 ± 0.15 |
| AAGUAGCAAUAUUACGAAGU | -3.02 ± 0.2 | -1.9 ± 0.18 |
| AAGUAGCAAUAUUACGAGCC | -2.87 ± 0.22 | -1.34 ± 0.25 |
| AAGUAGCAAUAUUACGCACU | -0.686 ± 0.095 | -0.854 ± 0.14 |
| AAGUAGCAAUAUUACGCAGA | -4.11 ± 0.24 | -1.54 ± 0.1 |
| AAGUAGCAAUAUUACGCAGU | – | -1.76 ± 0.19 |
| AAGUAGCAAUAUUACGCCGC | -3.12 ± 0.38 | – |
| AAGUAGCAAUAUUACGCCUA | -0.227 ± 0.11 | -0.477 ± 0.12 |
| AAGUAGCAAUAUUACGCCUG | -0.259 ± 0.14 | -0.00805 ± 0.14 |
| AAGUAGCAAUAUUACGCGCC | -0.381 ± 0.2 | -0.0421 ± 0.23 |
| AAGUAGCAAUAUUACGCGGU | -2.47 ± 0.31 | -2.59 ± 0.39 |
| AAGUAGCAAUAUUACGCGUG | -0.856 ± 0.067 | -0.191 ± 0.092 |
| AAGUAGCAAUAUUACGCUAU | -4.06 ± 0.35 | -1.9 ± 0.17 |
